Target: the molecule itself
Test: SEC; Superdex 200 10/300, 50 mM Tris-HCl pH 8.0, 150 mM NaCl; tag removed with thrombin; oligomeric state estimated from the molecular mass

B1: XcSOD, manganese containing superoxide dismutase from Xanthomonas citri subsp. citri (enzyme)
chain: MAYTLPQLPYAYDALEPNIDAQTMEIHHTKHHQTYINNVNAALEGTEYADLPIEELVSKLKSLPENLQGPVRNNGGGHANHSLFWTVLSPNGGGEPKGEVAKAIDKDLGGFEKFKEAFTKAAVSRFGSGWAWLSVTPDKKLVVESTANQDSPLFEGNTPILGLDVWEHAYYLKYQNRRPEYIGAFYNAVNWEEVERRYHAAIA
notes: Cloned in pET28a; His-tag removed with thrombin before size exclusion chromatography and crystallization; also called MnSOD; product of the sodM gene (XAC2386); source: E. coli BL21 (DE3), purified (Ni-NTA, thrombin, size exclusion chromatography); not shown: His-tag, N-terminal, cleaved
stoichiometry N: 2

Reference: paper PMC6322740, “Structural characterization of a pathogenicity-related superoxide dismutase codified by a probably essential gene in Xanthomonas citri subsp. citri” (PLoS ONE, 2019)
